The record followed here is FireProtDB (doi:10.1073/pnas.84.13.4441).

To fix the notation:
B1: Tryptophan synthase alpha chain, P0A877 (parent)
chain: MERYESLFAQLKERKEGAFVPFVTLGDPGIEQSLKIIDTLIEAGADALELGIPFSDPLADGPTIQNATLRAFAAGVTPAQCFEMLALIRQKHPTIPIGLLMYANLVFNKGIDEFYAQCEKVGVDSVLVADVPVEESAPFRQAALRHNVAPIFICPPNADDDLLRQIASYGRGYTYLLSRAGVTGAENRAALPLNHLVAKLKEYNAAPPLQGFGISAPDQVKAAIDAGAAGAISGSAIVKIIEQHINEPEKMLAALKVFVQPMKAATRS

The variants in the series derive from B1. The settings on record: Escherichia coli (strain K12), 25 °C, GdnHCl, CD, Potassium phosphate 20 mM, reversible: yes, structure 1WQ5, whole UniProt chain shown.

Turning to MERYESLFAQLKERKEGAFVPFVTLGDPGIEQSLKIIDTLIEAGADALPLGIPFSDPLADGPTIQNATLRAFAAGVTPAQCFEMLALIRQKHPTIPIGLLMYANLVFNKGIDEFYAQCEKVGVDSVLVADVPVEESAPFRQAALRHNVAPIFICPPNADDDLLRQIASYGRGYTYLLSRAGVTGAENRAALPLNHLVAKLKEYNAAPPLQGFGISAPDQVKAAIDAGAAGAISGSAIVKIIEQHINEPEKMLAALKVFVQPMKAATRS [E49P], under “pH 7”, the “ddG of mutation (higher = less stable)” value came out at 0 kcal/mol and the unfolding free energy turned out to be 18.2 kcal/mol. Also, for the setting “pH 9”, the “ddG of mutation (higher = less stable)” value is -0.8 kcal/mol and the unfolding free energy turned out to be 18.8 kcal/mol.
Take MERYESLFAQLKERKEGAFVPFVTLGDPGIEQSLKIIDTLIEAGADALFLGIPFSDPLADGPTIQNATLRAFAAGVTPAQCFEMLALIRQKHPTIPIGLLMYANLVFNKGIDEFYAQCEKVGVDSVLVADVPVEESAPFRQAALRHNVAPIFICPPNADDDLLRQIASYGRGYTYLLSRAGVTGAENRAALPLNHLVAKLKEYNAAPPLQGFGISAPDQVKAAIDAGAAGAISGSAIVKIIEQHINEPEKMLAALKVFVQPMKAATRS [E49F]: where the note is “pH 7”, the “ddG of mutation (higher = less stable)” value worked out at 0.86 kcal/mol and the unfolding free energy came out at 17.3 kcal/mol.
In the case of MERYESLFAQLKERKEGAFVPFVTLGDPGIEQSLKIIDTLIEAGADALGLGIPFSDPLADGPTIQNATLRAFAAGVTPAQCFEMLALIRQKHPTIPIGLLMYANLVFNKGIDEFYAQCEKVGVDSVLVADVPVEESAPFRQAALRHNVAPIFICPPNADDDLLRQIASYGRGYTYLLSRAGVTGAENRAALPLNHLVAKLKEYNAAPPLQGFGISAPDQVKAAIDAGAAGAISGSAIVKIIEQHINEPEKMLAALKVFVQPMKAATRS [E49G], where the note is “pH 7”, the “ddG of mutation (higher = less stable)” value is -0.08 kcal/mol and the unfolding free energy stood at 18.2 kcal/mol. Also, where the note is “pH 9”, the “ddG of mutation (higher = less stable)” value was -0.6 kcal/mol and the unfolding free energy was 18.6 kcal/mol.
As for MERYESLFAQLKERKEGAFVPFVTLGDPGIEQSLKIIDTLIEAGADALALGIPFSDPLADGPTIQNATLRAFAAGVTPAQCFEMLALIRQKHPTIPIGLLMYANLVFNKGIDEFYAQCEKVGVDSVLVADVPVEESAPFRQAALRHNVAPIFICPPNADDDLLRQIASYGRGYTYLLSRAGVTGAENRAALPLNHLVAKLKEYNAAPPLQGFGISAPDQVKAAIDAGAAGAISGSAIVKIIEQHINEPEKMLAALKVFVQPMKAATRS [E49A], under “pH 7”, the “ddG of mutation (higher = less stable)” value stood at 0.08 kcal/mol and the unfolding free energy was determined as 18.1 kcal/mol. For the same variant, where the note is “pH 9”, the “ddG of mutation (higher = less stable)” value is -0.59 kcal/mol and the unfolding free energy amounted to 18.6 kcal/mol.
Consider MERYESLFAQLKERKEGAFVPFVTLGDPGIEQSLKIIDTLIEAGADALMLGIPFSDPLADGPTIQNATLRAFAAGVTPAQCFEMLALIRQKHPTIPIGLLMYANLVFNKGIDEFYAQCEKVGVDSVLVADVPVEESAPFRQAALRHNVAPIFICPPNADDDLLRQIASYGRGYTYLLSRAGVTGAENRAALPLNHLVAKLKEYNAAPPLQGFGISAPDQVKAAIDAGAAGAISGSAIVKIIEQHINEPEKMLAALKVFVQPMKAATRS [E49M], for which, under “pH 7”, the “ddG of mutation (higher = less stable)” value was 0.05 kcal/mol and the unfolding free energy worked out at 18.1 kcal/mol. For the setting “pH 9”, the “ddG of mutation (higher = less stable)” value is -0.52 kcal/mol and the unfolding free energy came out at 18.5 kcal/mol.
On the same counts, the results for MERYESLFAQLKERKEGAFVPFVTLGDPGIEQSLKIIDTLIEAGADALKLGIPFSDPLADGPTIQNATLRAFAAGVTPAQCFEMLALIRQKHPTIPIGLLMYANLVFNKGIDEFYAQCEKVGVDSVLVADVPVEESAPFRQAALRHNVAPIFICPPNADDDLLRQIASYGRGYTYLLSRAGVTGAENRAALPLNHLVAKLKEYNAAPPLQGFGISAPDQVKAAIDAGAAGAISGSAIVKIIEQHINEPEKMLAALKVFVQPMKAATRS [E49K] are -0.2 kcal/mol, 18 kcal/mol, -0.39 kcal/mol and 18.4 kcal/mol.
Consider MERYESLFAQLKERKEGAFVPFVTLGDPGIEQSLKIIDTLIEAGADALQLGIPFSDPLADGPTIQNATLRAFAAGVTPAQCFEMLALIRQKHPTIPIGLLMYANLVFNKGIDEFYAQCEKVGVDSVLVADVPVEESAPFRQAALRHNVAPIFICPPNADDDLLRQIASYGRGYTYLLSRAGVTGAENRAALPLNHLVAKLKEYNAAPPLQGFGISAPDQVKAAIDAGAAGAISGSAIVKIIEQHINEPEKMLAALKVFVQPMKAATRS [E49Q], for which, for the setting “pH 7”, the “ddG of mutation (higher = less stable)” value is 0.23 kcal/mol and the unfolding free energy turned out to be 17.9 kcal/mol.
For the variant MERYESLFAQLKERKEGAFVPFVTLGDPGIEQSLKIIDTLIEAGADALDLGIPFSDPLADGPTIQNATLRAFAAGVTPAQCFEMLALIRQKHPTIPIGLLMYANLVFNKGIDEFYAQCEKVGVDSVLVADVPVEESAPFRQAALRHNVAPIFICPPNADDDLLRQIASYGRGYTYLLSRAGVTGAENRAALPLNHLVAKLKEYNAAPPLQGFGISAPDQVKAAIDAGAAGAISGSAIVKIIEQHINEPEKMLAALKVFVQPMKAATRS [E49D], where the note is “pH 7”, the “ddG of mutation (higher = less stable)” value amounted to 0.8 kcal/mol and the unfolding free energy was found to be 17.4 kcal/mol. Moreover, where the note is “pH 9”, the “ddG of mutation (higher = less stable)” value stood at 0.03 kcal/mol and the unfolding free energy is 17.9 kcal/mol.
Turning to MERYESLFAQLKERKEGAFVPFVTLGDPGIEQSLKIIDTLIEAGADALLLGIPFSDPLADGPTIQNATLRAFAAGVTPAQCFEMLALIRQKHPTIPIGLLMYANLVFNKGIDEFYAQCEKVGVDSVLVADVPVEESAPFRQAALRHNVAPIFICPPNADDDLLRQIASYGRGYTYLLSRAGVTGAENRAALPLNHLVAKLKEYNAAPPLQGFGISAPDQVKAAIDAGAAGAISGSAIVKIIEQHINEPEKMLAALKVFVQPMKAATRS [E49L], for the setting “pH 7”, the “ddG of mutation (higher = less stable)” value is -0.44 kcal/mol and the unfolding free energy amounted to 18.6 kcal/mol. Under “pH 9”, the “ddG of mutation (higher = less stable)” value was -1.04 kcal/mol and the unfolding free energy was found to be 19 kcal/mol.
Take MERYESLFAQLKERKEGAFVPFVTLGDPGIEQSLKIIDTLIEAGADALCLGIPFSDPLADGPTIQNATLRAFAAGVTPAQCFEMLALIRQKHPTIPIGLLMYANLVFNKGIDEFYAQCEKVGVDSVLVADVPVEESAPFRQAALRHNVAPIFICPPNADDDLLRQIASYGRGYTYLLSRAGVTGAENRAALPLNHLVAKLKEYNAAPPLQGFGISAPDQVKAAIDAGAAGAISGSAIVKIIEQHINEPEKMLAALKVFVQPMKAATRS [E49C]: the “ddG of mutation (higher = less stable)” value is -0.01 kcal/mol (pH 7) and 0.13 kcal/mol (pH 9). Also, the unfolding free energy was 18.2 kcal/mol (pH 7) and 17.8 kcal/mol (pH 9).
For MERYESLFAQLKERKEGAFVPFVTLGDPGIEQSLKIIDTLIEAGADALHLGIPFSDPLADGPTIQNATLRAFAAGVTPAQCFEMLALIRQKHPTIPIGLLMYANLVFNKGIDEFYAQCEKVGVDSVLVADVPVEESAPFRQAALRHNVAPIFICPPNADDDLLRQIASYGRGYTYLLSRAGVTGAENRAALPLNHLVAKLKEYNAAPPLQGFGISAPDQVKAAIDAGAAGAISGSAIVKIIEQHINEPEKMLAALKVFVQPMKAATRS [E49H], under “pH 7”, the “ddG of mutation (higher = less stable)” value was -0.33 kcal/mol and the unfolding free energy came out at 18.5 kcal/mol. Further, where the note is “pH 9”, the “ddG of mutation (higher = less stable)” value is -0.67 kcal/mol and the unfolding free energy turned out to be 18.6 kcal/mol.
For the variant MERYESLFAQLKERKEGAFVPFVTLGDPGIEQSLKIIDTLIEAGADALILGIPFSDPLADGPTIQNATLRAFAAGVTPAQCFEMLALIRQKHPTIPIGLLMYANLVFNKGIDEFYAQCEKVGVDSVLVADVPVEESAPFRQAALRHNVAPIFICPPNADDDLLRQIASYGRGYTYLLSRAGVTGAENRAALPLNHLVAKLKEYNAAPPLQGFGISAPDQVKAAIDAGAAGAISGSAIVKIIEQHINEPEKMLAALKVFVQPMKAATRS [E49I], for the setting “pH 7”, the “ddG of mutation (higher = less stable)” value is -0.46 kcal/mol and the unfolding free energy was 18.6 kcal/mol. Where the note is “pH 9”, the “ddG of mutation (higher = less stable)” value was -1.24 kcal/mol and the unfolding free energy was found to be 19.2 kcal/mol.
